From IntAct's records for PubMed 36931259

B1: 14-3-3 protein sigma (Homo sapiens), P31947 (parent)
chain: MERASLIQKAKLAEQAERYEDMAAFMKGAVEKGEELSCEERNLLSVAYKNVVGGQRAAWRVLSSIEQKSNEEGSEEKGPEVREYREKVETELQGVCDTVLGLLDSHLIKEAGDAESRVFYLKMKGDYYRYLAEVATGDDKKRIIDSARSAYQEAMDISKKEMPPTNPIRLGLALNFSVFHYEIANSPEEAISLAKTTFDEAMADLHTLSEDSYKDSTLIMQLLRDNLTLWTADNAGEEGGEAPQEPQS
B2: 14-3-3 protein sigma (Homo sapiens), P31947 (parent)
chain: B1 chain
partner: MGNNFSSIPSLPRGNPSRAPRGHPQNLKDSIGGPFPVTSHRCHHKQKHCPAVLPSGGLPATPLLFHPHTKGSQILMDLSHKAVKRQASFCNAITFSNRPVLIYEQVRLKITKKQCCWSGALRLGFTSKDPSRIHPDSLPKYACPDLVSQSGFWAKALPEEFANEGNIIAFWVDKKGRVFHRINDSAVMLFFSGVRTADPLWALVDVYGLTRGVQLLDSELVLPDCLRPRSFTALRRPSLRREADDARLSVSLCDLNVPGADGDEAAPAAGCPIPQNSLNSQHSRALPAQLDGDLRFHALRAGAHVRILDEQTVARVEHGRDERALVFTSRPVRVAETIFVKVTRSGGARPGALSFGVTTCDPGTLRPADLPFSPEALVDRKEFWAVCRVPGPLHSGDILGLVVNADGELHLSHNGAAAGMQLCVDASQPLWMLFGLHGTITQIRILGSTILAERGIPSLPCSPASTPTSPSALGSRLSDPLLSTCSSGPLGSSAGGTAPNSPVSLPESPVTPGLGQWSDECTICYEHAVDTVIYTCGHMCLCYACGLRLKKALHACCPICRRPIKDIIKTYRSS
B3: 14-3-3 protein sigma (Homo sapiens), P31947 (parent)
chain: B1 chain
partner: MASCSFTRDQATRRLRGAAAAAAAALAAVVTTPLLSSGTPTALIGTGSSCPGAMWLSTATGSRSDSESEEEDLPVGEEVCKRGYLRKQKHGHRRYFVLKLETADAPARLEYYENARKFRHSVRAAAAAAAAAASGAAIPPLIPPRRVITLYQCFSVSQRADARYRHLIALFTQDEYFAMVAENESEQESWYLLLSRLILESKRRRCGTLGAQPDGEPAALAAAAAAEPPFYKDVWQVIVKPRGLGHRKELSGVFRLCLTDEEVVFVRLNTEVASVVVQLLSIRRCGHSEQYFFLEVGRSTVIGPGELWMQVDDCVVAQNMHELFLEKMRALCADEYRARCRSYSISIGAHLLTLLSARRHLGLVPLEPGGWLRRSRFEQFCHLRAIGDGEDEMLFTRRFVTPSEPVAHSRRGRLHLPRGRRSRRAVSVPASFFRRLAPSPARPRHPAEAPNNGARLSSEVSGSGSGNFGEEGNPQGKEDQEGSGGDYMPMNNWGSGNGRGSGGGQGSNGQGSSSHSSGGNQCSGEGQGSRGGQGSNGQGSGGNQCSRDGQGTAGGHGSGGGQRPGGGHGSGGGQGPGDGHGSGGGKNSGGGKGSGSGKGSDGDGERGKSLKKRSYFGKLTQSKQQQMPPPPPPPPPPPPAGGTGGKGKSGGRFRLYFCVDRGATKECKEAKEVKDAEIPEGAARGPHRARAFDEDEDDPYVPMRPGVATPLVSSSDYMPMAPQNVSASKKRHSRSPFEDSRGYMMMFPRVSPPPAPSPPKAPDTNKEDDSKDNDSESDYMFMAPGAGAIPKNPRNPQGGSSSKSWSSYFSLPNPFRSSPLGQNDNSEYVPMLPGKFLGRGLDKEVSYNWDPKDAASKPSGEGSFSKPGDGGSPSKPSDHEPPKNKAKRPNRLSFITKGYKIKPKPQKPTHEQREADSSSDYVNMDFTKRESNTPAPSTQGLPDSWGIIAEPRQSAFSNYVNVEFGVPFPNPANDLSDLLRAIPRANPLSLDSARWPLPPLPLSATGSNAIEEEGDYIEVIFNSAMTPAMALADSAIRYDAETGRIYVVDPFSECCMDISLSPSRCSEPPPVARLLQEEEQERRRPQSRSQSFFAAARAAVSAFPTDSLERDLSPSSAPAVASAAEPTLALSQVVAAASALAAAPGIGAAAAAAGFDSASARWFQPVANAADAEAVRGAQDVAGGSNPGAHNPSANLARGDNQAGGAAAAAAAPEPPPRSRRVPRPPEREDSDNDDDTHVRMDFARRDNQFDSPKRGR
B4: 14-3-3 protein sigma (Homo sapiens), P31947 (parent)
chain: B1 chain
partner: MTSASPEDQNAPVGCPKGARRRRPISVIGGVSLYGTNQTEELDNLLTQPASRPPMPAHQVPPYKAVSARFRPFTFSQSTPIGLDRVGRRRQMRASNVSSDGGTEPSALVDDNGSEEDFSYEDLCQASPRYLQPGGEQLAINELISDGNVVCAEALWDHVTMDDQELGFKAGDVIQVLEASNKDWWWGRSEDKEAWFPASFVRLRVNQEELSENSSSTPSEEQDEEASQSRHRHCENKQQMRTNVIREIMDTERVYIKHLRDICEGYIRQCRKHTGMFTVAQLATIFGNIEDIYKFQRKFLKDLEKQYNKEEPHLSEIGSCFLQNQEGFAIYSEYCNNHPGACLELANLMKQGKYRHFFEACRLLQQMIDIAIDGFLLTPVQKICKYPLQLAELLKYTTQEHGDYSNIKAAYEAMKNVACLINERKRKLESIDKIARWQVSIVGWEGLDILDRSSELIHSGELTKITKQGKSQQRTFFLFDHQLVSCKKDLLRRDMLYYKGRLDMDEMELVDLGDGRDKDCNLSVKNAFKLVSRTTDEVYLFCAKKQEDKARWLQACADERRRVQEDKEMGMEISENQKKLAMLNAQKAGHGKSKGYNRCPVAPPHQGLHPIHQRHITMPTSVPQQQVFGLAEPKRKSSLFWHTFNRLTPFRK
B5: 14-3-3 protein sigma (Homo sapiens), P31947 (parent)
chain: B1 chain
partner: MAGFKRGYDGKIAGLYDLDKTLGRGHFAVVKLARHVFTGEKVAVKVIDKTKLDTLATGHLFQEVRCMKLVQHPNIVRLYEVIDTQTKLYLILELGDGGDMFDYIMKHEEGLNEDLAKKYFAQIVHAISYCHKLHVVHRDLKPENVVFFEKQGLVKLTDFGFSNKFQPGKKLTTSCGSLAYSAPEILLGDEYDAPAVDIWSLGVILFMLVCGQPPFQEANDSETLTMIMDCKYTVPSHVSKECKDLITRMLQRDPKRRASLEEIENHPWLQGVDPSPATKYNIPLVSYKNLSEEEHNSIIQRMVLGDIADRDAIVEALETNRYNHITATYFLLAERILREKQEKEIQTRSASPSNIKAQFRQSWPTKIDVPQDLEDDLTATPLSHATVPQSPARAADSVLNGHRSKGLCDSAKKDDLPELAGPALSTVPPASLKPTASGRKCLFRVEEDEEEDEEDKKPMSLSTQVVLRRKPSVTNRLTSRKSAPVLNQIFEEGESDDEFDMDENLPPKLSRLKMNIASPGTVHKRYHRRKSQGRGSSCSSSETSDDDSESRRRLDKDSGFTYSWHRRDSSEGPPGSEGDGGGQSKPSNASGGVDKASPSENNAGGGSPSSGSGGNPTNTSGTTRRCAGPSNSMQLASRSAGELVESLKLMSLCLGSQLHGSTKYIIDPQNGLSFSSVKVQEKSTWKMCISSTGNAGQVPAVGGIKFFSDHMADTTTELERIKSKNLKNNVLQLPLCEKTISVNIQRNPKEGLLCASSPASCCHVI
B6: 14-3-3 protein sigma (Homo sapiens), P31947 (parent)
chain: B1 chain
partner: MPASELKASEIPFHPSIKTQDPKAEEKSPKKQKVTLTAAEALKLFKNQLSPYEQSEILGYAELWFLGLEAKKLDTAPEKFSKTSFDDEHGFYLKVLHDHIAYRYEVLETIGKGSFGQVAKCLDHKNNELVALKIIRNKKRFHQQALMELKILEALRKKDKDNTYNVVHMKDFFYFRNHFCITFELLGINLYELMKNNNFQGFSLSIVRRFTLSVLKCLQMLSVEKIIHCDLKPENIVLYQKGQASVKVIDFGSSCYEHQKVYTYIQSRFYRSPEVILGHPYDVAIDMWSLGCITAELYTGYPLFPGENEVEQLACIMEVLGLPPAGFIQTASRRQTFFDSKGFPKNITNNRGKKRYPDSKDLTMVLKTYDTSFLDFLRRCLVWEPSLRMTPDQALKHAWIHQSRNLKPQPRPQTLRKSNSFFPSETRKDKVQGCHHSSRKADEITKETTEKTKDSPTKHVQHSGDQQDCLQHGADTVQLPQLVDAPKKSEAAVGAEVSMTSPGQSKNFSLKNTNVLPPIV
B7: 14-3-3 protein sigma (Homo sapiens), P31947 (parent)
chain: B1 chain
partner: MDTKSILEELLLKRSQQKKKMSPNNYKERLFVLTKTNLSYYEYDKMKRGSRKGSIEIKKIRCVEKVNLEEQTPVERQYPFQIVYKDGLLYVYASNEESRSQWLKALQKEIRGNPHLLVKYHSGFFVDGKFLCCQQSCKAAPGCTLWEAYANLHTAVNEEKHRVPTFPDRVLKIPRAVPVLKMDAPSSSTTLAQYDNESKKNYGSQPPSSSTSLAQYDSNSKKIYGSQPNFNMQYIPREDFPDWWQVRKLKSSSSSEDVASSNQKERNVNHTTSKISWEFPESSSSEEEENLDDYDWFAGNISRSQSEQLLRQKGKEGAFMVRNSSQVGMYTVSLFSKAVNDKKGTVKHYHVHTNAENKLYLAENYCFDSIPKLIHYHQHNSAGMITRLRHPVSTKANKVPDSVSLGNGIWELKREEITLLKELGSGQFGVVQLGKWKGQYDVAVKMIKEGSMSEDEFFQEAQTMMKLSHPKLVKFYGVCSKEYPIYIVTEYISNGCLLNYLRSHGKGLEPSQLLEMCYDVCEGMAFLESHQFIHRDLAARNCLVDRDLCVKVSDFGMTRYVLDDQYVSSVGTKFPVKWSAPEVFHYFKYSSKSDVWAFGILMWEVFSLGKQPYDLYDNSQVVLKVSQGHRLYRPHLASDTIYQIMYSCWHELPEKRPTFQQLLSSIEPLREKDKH
B8: 14-3-3 protein sigma (Homo sapiens), P31947 (parent)
chain: B1 chain
partner: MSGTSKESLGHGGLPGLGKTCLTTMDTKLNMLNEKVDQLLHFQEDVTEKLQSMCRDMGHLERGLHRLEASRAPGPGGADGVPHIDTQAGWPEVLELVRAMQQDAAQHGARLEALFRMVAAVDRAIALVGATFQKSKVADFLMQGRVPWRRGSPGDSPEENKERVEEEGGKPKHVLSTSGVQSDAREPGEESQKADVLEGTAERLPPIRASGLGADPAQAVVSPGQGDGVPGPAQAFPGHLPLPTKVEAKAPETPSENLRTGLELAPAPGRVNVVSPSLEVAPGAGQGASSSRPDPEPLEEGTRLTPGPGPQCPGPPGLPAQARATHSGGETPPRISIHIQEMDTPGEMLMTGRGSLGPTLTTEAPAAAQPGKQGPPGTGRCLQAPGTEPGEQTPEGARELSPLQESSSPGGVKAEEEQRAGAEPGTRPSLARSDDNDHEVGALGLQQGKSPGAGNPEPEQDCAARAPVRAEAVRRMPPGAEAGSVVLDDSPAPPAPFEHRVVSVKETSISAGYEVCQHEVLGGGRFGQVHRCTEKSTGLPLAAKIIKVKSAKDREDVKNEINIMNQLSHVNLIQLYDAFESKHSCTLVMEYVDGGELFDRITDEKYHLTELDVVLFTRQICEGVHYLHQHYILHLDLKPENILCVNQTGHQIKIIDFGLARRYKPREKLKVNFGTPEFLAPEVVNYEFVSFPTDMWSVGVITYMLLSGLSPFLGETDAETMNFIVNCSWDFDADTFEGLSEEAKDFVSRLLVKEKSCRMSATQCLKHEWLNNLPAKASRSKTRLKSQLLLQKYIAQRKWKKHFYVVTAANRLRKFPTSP

Variants of: B1
Conditions: with gsk3a_human GSK3A

Variant	effect of a mutation on the interaction
K49D;R56D;V178D	decreasing interaction strength

Variants of: B2
Conditions: with neul1_human NEURL1, O76050

Variant	effect of a mutation on the interaction
K49E;R56E;V178D	decreasing interaction strength

Variants of: B3
Conditions: with irs4_human IRS4, O14654

Variant	effect of a mutation on the interaction
K49E;R56E;V178D	decreasing interaction strength

Variants of: B4
Conditions: with spt13_human SPATA13, Q96N96

Variant	effect of a mutation on the interaction
K49E;R56E;V178D	decreasing interaction strength

Variants of: B5
Conditions: with snrk_human SNRK

Variant	effect of a mutation on the interaction
K49E;R56E;V178D	decreasing interaction strength

Variants of: B6
Conditions: with dyrk4_human DYRK4, Q9NR20

Variant	effect of a mutation on the interaction
K49E;R56E;V178D	decreasing interaction strength

Variants of: B7
Conditions: with bmx_human BMX

Variant	effect of a mutation on the interaction
K49E;R56E;V178D	decreasing interaction strength

Variants of: B8
Conditions: with mylk3_human MYLK3, Q32MK0

Variant	effect of a mutation on the interaction
K49E;R56E;V178D	decreasing interaction strength
